Laboratory results taken from PMC6985235 (2020).

Target: His-TvCyP1 (Trichomonas vaginalis, UniProt A2DT06 1-173)
Assay: ITC; 25°C

B1: His-Myb3^53–180 (domain or fragment)
chain: KGPFTEAEDDLIREYVKENGPQNWPRITSFLPNRSPKQCRERWFNHLDPAVVKHAWTPEEDETIFRNYLKLGSKWSVIAKLIPGRTDNAIKNRWNSSISKRISTNSNHKEILLPDRSKKRKAADVPKK
B1 was tested, and the Kd was 2.04 mM.
